Reference: the supplement of paper PMC11246515
± gives the standard deviation of the averaged measurements.

Assay: total protein half-life in vivo (active degradation + dilution); higher = more stable protein
[1] = E. coli NCM3722 delta-clpP delta-lon delta-hslV, growth: N-lim chemostat, doubling time 6 h
[2] = E. coli NCM3722 delta-clpP, growth: N-lim chemostat, doubling time 6 h
[3] = E. coli NCM3722 delta-hslV, growth: N-lim chemostat, doubling time 6 h
[4] = E. coli NCM3722 delta-lon, growth: N-lim chemostat, doubling time 6 h
[5] = E. coli NCM3722 delta-smpB, growth: N-lim chemostat, doubling time 6 h
[6] = wild type E. coli NCM3722, growth: C-lim chemostat, doubling time 3 h
[7] = wild type E. coli NCM3722, growth: C-lim chemostat, doubling time 6 h
[8] = wild type E. coli NCM3722, growth: C-lim chemostat, doubling time 12 h
[9] = wild type E. coli NCM3722, growth: N-lim chemostat, doubling time 6 h
[10] = wild type E. coli NCM3722, growth: N-lim chemostat, doubling time 12 h
[11] = wild type E. coli NCM3722, growth: P-lim chemostat, doubling time 6 h
[12] = wild type E. coli NCM3722, growth: P-lim chemostat, doubling time 12 h

| Sequence | total protein half-life in vivo [1] [h] | total protein half-life in vivo [2] [h] | total protein half-life in vivo [3] [h] | total protein half-life in vivo [4] [h] | total protein half-life in vivo [5] [h] | total protein half-life in vivo [6] [h] | total protein half-life in vivo [7] [h] | total protein half-life in vivo [8] [h] | total protein half-life in vivo [9] [h] | total protein half-life in vivo [10] [h] | total protein half-life in vivo [11] [h] | total protein half-life in vivo [12] [h] |
| --- | --- | --- | --- | --- | --- | --- | --- | --- | --- | --- | --- | --- |
| MDLRDLKTFLHLAESRHFGRSARAMHVSPSTLSRQIQRLEEDLGQPLFVRDNRTVTLTEAGEELRVFAQQTLLQYQQLRHTIDQQGPSLSGELHIFCSVTAAYSHLPPILDRFRAEHPSVEIKLTTGDAADAMEKVVTGEADLAIAGKPETLPGAVAFSMLENLAVVLIAPALPCPVRNQVSVEKPDWSTVPFIMADQGPVRRRIELWFRRNKISNPMIYATVGGHEAMVSMVALGCGVALLPEVVLENSPEPVRNRVMILERSDEKTPFELGVCAQKKRLHEPLIEAFWKILPNHK | 6.95 ± 1.4 | 6.14 ± 0.2 | 5.87 ± 0.32 | 6.22 ± 0.23 | 6.35 ± 1.1 | 2.78 ± 0.13 | 5.47 ± 0.66 | 11.4 ± 3.2 | 5.9 ± 0.012 | 10.9 ± 1.1 | 5.48 ± 0.1 | 11 ± 0.99 |
| MDMDLNNRLTEDETLEQAYDIFLELAADNLDPADVLLFNLQFEERGGAELFDPAEDWQEHVDFDLNPDFFAEVVIGLADSEDGEINDVFARILLCREKDHKLCHIIWRE [P0A8L7] | 5.64 ± 0.096 | 4.35 ± 0.49 | 3.78 | 5.055 ± 0.0098 | 3.64 | 2.74 ± 0.24 | 5.72 ± 0.71 | 8.89 | 3.83 | 7.29 ± 0.12 | > 8 | 11.2 ± 3.8 |
| MDMHSGTFNPQDFAWQGLTLTPAAAIHIRELVAKQPGMVGVRLGVKQTGCAGFGYVLDSVSEPDKDDLLFEHDGAKLFVPLQAMPFIDGTEVDFVREGLNQIFKFHNPKAQNECGCGESFGV | 4.64 ± 0.11 | 2.79 | – | 3.64 | 2.14 | 1.94 ± 0.049 | 3.99 ± 0.5 | 4.5 | 1.86 ± 0.16 | 2.58 | 2.69 | 4.79 ± 0.6 |
| MDNAVDRHVFYISDGTAITAEVLGHAVMSQFPVTISSITLPFVENESRARAVKDQIDAIYHQTGVRPLVFYSIVLPEIRAIILQSEGFCQDIVQALVAPLQQEMKLDPTPIAHRTHGLNPNNLNKYDARIAAIDYTLAHDDGISLRNLDQAQVILLGVSRCGKTPTSLYLAMQFGIRAANYPFIADDMDNLVLPASLKPLQHKLFGLTIDPERLAAIREERRENSRYASLRQCRMEVAEVEALYRKNQIPWINSTNYSVEEIATKILDIMGLSRRMY [P0A8A4] | 5.48 ± 1.3 | 4.186 ± 0.013 | 4.0273 ± 0.0032 | 4.39 ± 0.15 | 3.98 ± 0.32 | 3.15 ± 0.21 | 5.64 ± 0.63 | 9.92 ± 1.4 | 4.1527 ± 0.0038 | 6.76 ± 0.45 | 5.48 ± 0.51 | 10.7 ± 0.8 |
| MDQAGIIRDLLIWLEGHLDQPLSLDNVAAKAGYSKWHLQRMFKDVTGHAIGAYIRARRLSKSAVALRLTARPILDIALQYRFDSQQTFTRAFKKQFAQTPALYRRSPEWSAFGIRPPLRLGEFTMPEHKFVTLEDTPLIGVTQSYSCSLEQISDFRHEMRYQFWHDFLGNAPTIPPVLYGLNETRPSQDKDDEQEVFYTTALAQDQADGYVLTGHPVMLQGGEYVMFTYEGLGTGVQEFILTVYGTCMPMLNLTRRKGQDIERYYPAEDAKAGDRPINLRCELLIPIRR [P0ACI0] | 5.25 ± 0.62 | 5.39 ± 0.29 | 5.7 ± 1.1 | 5.49 ± 0.38 | 5.37 ± 0.28 | 2.92 ± 0.065 | 6.47 ± 0.27 | 11.3 ± 0.12 | 5.15 ± 0.4 | 9.41 ± 0.68 | 5.31 ± 0.06 | 11.8 ± 0.37 |
| MDQKLLTDFRSELLDSRFGAKAISTIAESKRFPLHEMRDDVAFQIINDELYLDGNARQNLATFCQTWDDENVHKLMDLSINKNWIDKEEYPQSAAIDLRCVNMVADLWHAPAPKNGQAVGTNTIGSSEACMLGGMAMKWRWRKRMEAAGKPTDKPNLVCGPVQICWHKFARYWDVELREIPMRPGQLFMDPKRMIEACDENTIGVVPTFGVTYTGNYEFPQPLHDALDKFQADTGIDIDMHIDAASGGFLAPFVAPDIVWDFRLPRVKSISASGHKFGLAPLGCGWVIWRDEEALPQELVFNVDYLGGQIGTFAINFSRPAGQVIAQYYEFLRLGREGYTKVQNASYQVAAYLADEIAKLGPYEFICTGRPDEGIPAVCFKLKDGEDPGYTLYDLSERLRLRGWQVPAFTLGGEATDIVVMRIMCRRGFEMDFAELLLEDYKASLKYLSDHPKLQGIAQQNSFKHT | 5.86 ± 0.071 | – | – | 5.71 ± 0.19 | 5.91 ± 0.41 | 3.71 | 6.55 ± 0.6 | > 16 | 5.53 | 9.35 ± 0.68 | 6.024 ± 0.042 | 12.1 ± 1.2 |
